Results as given in patent US20130184211A1 (NEW YORK UNIVERSITY, published 2013).

T1: 1:1 binary complex of the ectodomains of FGFR1c and Klotho (human; murine, UniProt O35082 35-982)
T1 construct: range 35-982; also called FGFR1c-Klotho complex; binary FGFR1c-Klotho complex; not shown: C-terminal FLAG tag
T1 sequence 1: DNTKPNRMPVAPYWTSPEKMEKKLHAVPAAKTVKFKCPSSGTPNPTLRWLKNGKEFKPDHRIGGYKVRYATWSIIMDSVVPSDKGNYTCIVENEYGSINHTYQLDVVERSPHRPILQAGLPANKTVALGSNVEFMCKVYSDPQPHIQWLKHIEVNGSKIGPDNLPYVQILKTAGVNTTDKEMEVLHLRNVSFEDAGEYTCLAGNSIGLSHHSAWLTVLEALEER
T1 sequence 2: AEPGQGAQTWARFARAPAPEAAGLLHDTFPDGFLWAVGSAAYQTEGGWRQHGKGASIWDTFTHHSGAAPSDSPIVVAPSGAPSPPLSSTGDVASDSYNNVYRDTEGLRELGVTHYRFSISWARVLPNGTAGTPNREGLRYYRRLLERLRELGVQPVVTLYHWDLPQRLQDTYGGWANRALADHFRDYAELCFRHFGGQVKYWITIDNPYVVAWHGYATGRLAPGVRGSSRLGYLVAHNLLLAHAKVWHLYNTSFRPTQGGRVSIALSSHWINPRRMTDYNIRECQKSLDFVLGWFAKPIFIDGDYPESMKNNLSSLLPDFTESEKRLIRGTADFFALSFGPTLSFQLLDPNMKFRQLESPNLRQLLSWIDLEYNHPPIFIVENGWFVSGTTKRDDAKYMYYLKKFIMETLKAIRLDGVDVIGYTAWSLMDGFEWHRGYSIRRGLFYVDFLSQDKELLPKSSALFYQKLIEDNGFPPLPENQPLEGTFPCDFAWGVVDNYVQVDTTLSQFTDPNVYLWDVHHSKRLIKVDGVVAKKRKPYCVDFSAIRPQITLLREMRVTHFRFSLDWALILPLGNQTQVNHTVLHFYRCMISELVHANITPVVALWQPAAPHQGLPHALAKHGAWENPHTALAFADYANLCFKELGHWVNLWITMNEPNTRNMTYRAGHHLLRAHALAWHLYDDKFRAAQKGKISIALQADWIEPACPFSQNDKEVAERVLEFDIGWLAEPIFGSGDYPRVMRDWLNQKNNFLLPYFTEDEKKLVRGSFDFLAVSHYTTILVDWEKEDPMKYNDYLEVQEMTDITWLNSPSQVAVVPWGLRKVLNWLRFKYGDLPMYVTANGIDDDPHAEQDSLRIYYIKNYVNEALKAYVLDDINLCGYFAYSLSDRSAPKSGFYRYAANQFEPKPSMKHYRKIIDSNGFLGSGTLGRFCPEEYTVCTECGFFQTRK


Molecular target: T1, 1:1 binary complex of the ectodomains …
Assay: SPR competition; competitor FGF23^28-251 immobilized, fixed FGFR1c-Klotho complex
Description: Increasing concentrations of FGF23²⁸⁻²⁵¹ (0-50 nM) were mixed with a fixed concentration of 1:1 complex of the ectodomains of FGFR1c and Klotho (15 nM and 20 nM, respectively) in HBS-EP buffer, and the mixtures were passed over the FGF23 chip. In the other—reverse—assay, FGF23¹⁸⁰⁻²⁵¹ was immobilized on a chip (˜48.4 fmole/mm² of flow channel). Increasing concentrations of FGF23²⁸⁻²⁵¹ (0-50 nM) were mixed with a fixed concentration of 1:1 complex of the ectodomains of FGFR1c and Klotho (20 nM) in HBS-EP buffer, and the mixtures were passed over the chip. As a control, competition of FGF23 C-terminal tail peptide in solution with immobilized FGF23 C-terminal tail peptide for binding to the binary FGFR1c-Klotho complex was studied. Increasing concentrations of FGF23¹⁸⁰⁻²⁵¹ (0-400 nM) were mixed with a fixed concentration of 1:1 complex of the ectodomains of FGFR1c and Klotho (20 nM) in HBS-EP buffer, and the mixtures were passed over the FGF23¹⁸⁰⁻²⁵¹ chip.
To fully nail down that the C-terminal tail of FGF23 mediates FGF23 binding to the binary FGFR1c-Klotho complex, a fixed concentration of FGFR1c-Klotho was mixed with increasing concentrations of FGF23¹⁸⁰⁻²⁵¹, and the mixtures were passed over the FGF23 chip. Mixtures of FGF23²⁸⁻²⁵¹ with FGFR1c-Klotho were used as a control. […] Similar results were obtained using the “reverse” SPR assay format, where FGF23¹⁸⁰⁻²⁵¹ was immobilized on a chip and mixtures of a fixed concentration of FGFR1c-Klotho complex with increasing concentrations of FGF23²⁸⁻²⁵¹ were passed over the chip (FIG. 3E). Mixtures of FGF23¹⁸⁰⁻²⁵¹ with FGFR1c-Klotho were used as a control (FIG. 3F). To verify the specificity of the interaction between the FGF23 C-terminal tail and the FGFR1c-Klotho complex, the C-terminal tail peptide of FGF21 and FGFR1c-Klotho were mixed at molar ratios of 6:1 and 10:1, and the mixtures were injected over a FGF23 chip.

molar excess over FGFR1c-Klotho complex at half-maximum inhibition | Binder
5.7 fold molar excess | SAEDDSERDPLNVLKPRARMTPAPAS (Made by solid phase synthesis (GenScript)) [FGF23 C-terminal region peptide (S180 to S205), FGF23^180-205]
3.3 fold molar excess | N-terminally hexahistidine-tagged 72-amino acid C-terminal tail of human FGF23 (S180 to I251), FGF23^180-251 (Expressed in E. coli; also called FGF23 C-terminal tail peptide; C-terminal tail of FGF23; not shown: N-terminal hexahistidine tag (six His)) peptide: SAEDDSERDPLNVLKPRARMTPAPASCSQELPSAEDNSPMASDPLGVVRGGRVNTHAGGTGPEGCRPFAKFI
